The target of the assay is RpL26-eGFP (UniProt P61254). The assay is described as follows: fluorescence cross-correlation spectroscopy (FCCS); live HeLa cells co-transfected with the two labelled proteins, two-photon excitation at 1020 nm, green and red channels, cytoplasm.

Consider NCp7-mCherry (natural protein), for which the percent of NCp7-mCherry molecules that cross-correlate with RpL26-eGFP lay in the range of 40 to 70%.
